Source: paper PMC3571961

How the values were obtained:
[1] = target: C-terminal domain of minor ampullate spidroin (CTDMi) from N. antipodiana (Nephila antipodiana); test: SEC; Superdex 75 PG, 120 ml, 10 mM sodium phosphate pH 6.8 without NaCl, 1 ml/min; apparent molecular weight against standards
[2] = target: Tri-domain miniature fibroin RP-LK-CTDMi of minor ampullate spidroin from N. antipodiana (Nephila antipodiana); test: as above

| Substance | stoichiometry N [1] | stoichiometry N [2] |
| --- | --- | --- |
| C-terminal domain of minor ampullate spidroin (CTDMi) from N. antipodiana (domain or fragment) | 2 |  |
| Tri-domain miniature fibroin RP-LK-CTDMi of minor ampullate spidroin from N. antipodiana (domain or fragment) |  | 2 |
